Laboratory results reported in article PMC12362409.

Experiments:
[1] = target: TRAF2 (UniProt Q12933); experiment: anti-Myc co-IP, Flag immunoblot; conditions: reference: wild type mMAVS; sites S186,S220
[2] = target: TRAF3 (UniProt Q13114); experiment: anti-Myc co-IP, Flag immunoblot; conditions: reference: wild type mMAVS; sites S186,S220

binding against the reference [1]: weaker
binding against the reference [2]: weaker
Substance: mouse MAVS (mMAVS) (from UniProt Q8VCF0) S186A/S220A (2SA)
